Results taken from patent US20220242962A1 (APTEVO RESEARCH AND DEVELOPMENT, published 2022).
Numbering of substitutions follows the chain as printed. Blank lines part the entries; values can stand above or below the binder they belong to.

What was measured:
Full-length Cyno 4-1BB = molecular target: T1, Full-length Cyno 4-1BB (cynomolgus monkey, UniProt Q07011 24-255 (human entry)); assay: flow cytometry on Jurkat cells transfected with cynomolgus 4-1BB, goat anti-human Fc secondary antibody, MFI (Mean)
T1 construct: on Jurkat or CHO cells; also called FOB006; cynomolgus 4-1BB
T1 chain: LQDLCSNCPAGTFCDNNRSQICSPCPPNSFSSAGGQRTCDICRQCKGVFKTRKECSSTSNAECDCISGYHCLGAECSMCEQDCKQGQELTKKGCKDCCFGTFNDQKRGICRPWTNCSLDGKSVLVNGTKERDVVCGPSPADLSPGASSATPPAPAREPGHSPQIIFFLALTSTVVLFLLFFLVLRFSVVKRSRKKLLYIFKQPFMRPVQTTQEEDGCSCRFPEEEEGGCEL
Experimental: (§1) Serial dilutions of ADAPTIR™ constructs were incubated with transfected target cells and subsequently labelled with a fluorescently-conjugated goat-a-human Fc secondary antibody. […] (See Example 25.)

Full-length Cyno OX40 = molecular target: T2, Full-length Cyno OX40 (cynomolgus monkey, UniProt P43489 29-277 (human entry)); assay: flow cytometry on CHOK1SV cells transfected with cynomolgus OX40, goat anti-human Fc secondary antibody, MFI (Mean)
T2 construct: on CHO-K1SV cells; also called OXF004; cynomolgus OX40
T2 chain: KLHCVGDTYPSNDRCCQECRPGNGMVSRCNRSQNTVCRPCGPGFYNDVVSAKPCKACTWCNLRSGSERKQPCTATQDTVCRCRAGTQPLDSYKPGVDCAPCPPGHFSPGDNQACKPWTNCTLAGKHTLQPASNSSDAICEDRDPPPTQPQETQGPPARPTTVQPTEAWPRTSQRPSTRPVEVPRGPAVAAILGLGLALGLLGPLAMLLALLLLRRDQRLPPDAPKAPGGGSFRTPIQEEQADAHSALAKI
Experimental: as §1

Full-length Human OX40 = molecular target: T3, Full-length Human OX40 (human, UniProt P43489 29-277); assay: cell-based or functional assay
T3 sequence: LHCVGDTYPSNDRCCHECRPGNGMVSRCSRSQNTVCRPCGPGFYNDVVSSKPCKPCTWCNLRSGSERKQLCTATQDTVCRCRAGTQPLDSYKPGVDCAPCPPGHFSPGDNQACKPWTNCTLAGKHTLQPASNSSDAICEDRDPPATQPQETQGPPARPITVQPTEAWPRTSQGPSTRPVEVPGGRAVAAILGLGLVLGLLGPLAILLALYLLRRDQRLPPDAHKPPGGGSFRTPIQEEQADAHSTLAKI

Full-length Human 4-1BB = Full-length Human 4-1BB (human, UniProt Q07011 24-255); assay: cell-based or functional assay
Cyno OX40-AFH = molecular target: T4, Cyno OX40-AFH (cynomolgus monkey); assay: SPR (Biacore 8K), construct captured, monovalent ECD
T4 construct: entry includes the tags; also called OXF005; cyno OX40 ECD
T4 chain: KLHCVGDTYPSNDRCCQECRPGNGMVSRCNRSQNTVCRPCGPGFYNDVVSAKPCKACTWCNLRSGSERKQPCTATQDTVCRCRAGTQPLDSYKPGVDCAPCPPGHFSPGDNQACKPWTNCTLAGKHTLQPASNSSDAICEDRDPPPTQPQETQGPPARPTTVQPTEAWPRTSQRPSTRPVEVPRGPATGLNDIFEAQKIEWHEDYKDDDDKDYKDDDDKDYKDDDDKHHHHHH
Experimental: (§2) Mouse anti-human IgG (GE, BR-1008-39) at 25 μg/ml in 10 mM sodium acetate pH 5.0 was immobilized at a density of ˜10,000 response units (RU) onto each flow cell of a CM5 research-grade sensor chip (GE) by standard amine coupling chemistry. Each binding protein at approximately 100 nM in HBS-EP+ with 0.2% BSA buffer was captured in a flow cell with the immobilized anti-human IgG at a flow rate of 10 μL/min for 20 seconds, leaving one flow cell surface unmodified as the reference. Using a single-cycle kinetics mode, five different concentrations of ECD were sequentially injected through each flow cell at 30 μL/min for 300 seconds followed by a 600 second dissociation period. Regeneration was achieved by injection of 3 M MgCl₂ at a flow rate of 30 μL/min for 30 seconds followed by HBS-EP+ with 0.2% BSA buffer stabilization for 1 min.
(§3) Sensorgrams obtained from kinetic SPR measurements were analyzed by the double subtraction method. The signal from the reference flow cell was subtracted from the analyte binding response obtained from flow cells with immobilized or captured ligands. Buffer reference responses were then averaged from multiple injections. The averaged buffer reference responses were then subtracted from analyte binding responses, and the final double-referenced data were analyzed with Biacore T200 Evaluation software (2.0, GE), globally fitting data to derive kinetic parameters. All sensorgrams were fitted using a simple one-to-one binding model.
(§4) Using the BIACORE 8K SPR system, the affinity of these constructs for human and cyno 4-1BB, and human and cyno OX40 ECD, were determined using the methods described above. Monovalent binding affinity was determined by capturing the ADAPTIR™ bispecific construct on the chip and injecting monovalent ECD of the target at multiple concentrations.

Human OX40 ECD-AFH = molecular target: T5, Human OX40 ECD-AFH (human); assay: as above
T5 construct: ECD'; entry includes the C-terminal tags; also called OXF003; Human OX40 ECD-avi-flag-his
T5 chain: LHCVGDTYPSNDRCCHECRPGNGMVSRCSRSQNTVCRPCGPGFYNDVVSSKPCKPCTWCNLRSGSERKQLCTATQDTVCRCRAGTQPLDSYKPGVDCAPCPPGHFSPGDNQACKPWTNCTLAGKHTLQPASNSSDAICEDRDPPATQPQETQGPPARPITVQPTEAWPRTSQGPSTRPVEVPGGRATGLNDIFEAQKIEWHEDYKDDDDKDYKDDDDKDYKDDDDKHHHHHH
Experimental: as §2, §3, §4

Human 4-1BB ECD-AFH = molecular target: T6, Human 4-1BB ECD-AFH (human); assay: as above
T6 construct: entry includes the tags; also called FOB003; HUMAN CD137 ECD-AVI-FLAG-HIS
Experimental: as §2, §3, §4

Cyno 4-1BB ECD-AFH = molecular target: T7, Cyno 4-1BB ECD-AFH (cynomolgus monkey); assay: as above
T7 construct: entry includes the tags; also called FOB004; Cyno CD137 ECD-avi-flag-his
T7 chain: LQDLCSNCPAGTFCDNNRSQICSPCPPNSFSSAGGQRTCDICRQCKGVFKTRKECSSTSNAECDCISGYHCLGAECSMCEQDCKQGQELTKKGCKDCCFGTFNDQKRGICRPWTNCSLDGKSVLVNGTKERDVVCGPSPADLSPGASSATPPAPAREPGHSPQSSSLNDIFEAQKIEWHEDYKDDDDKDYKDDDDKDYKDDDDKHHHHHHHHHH
Experimental: as §2, §3, §4

EC50 (read off the curve) (Full-length Cyno 4-1BB): ~0.3 nM
EC50 (read off the curve) (Full-length Cyno OX40): 1 to 2 nM
OX40 Reporter Assay EC50 (Full-length Human OX40): 0.017 nM
OX40 Reporter Assay Max induction (Full-length Human OX40): 5.9e+06
4-1BB Reporter Assay EC50 (Full-length Human 4-1BB): 0.021 nM
4-1BB Reporter Assay Max induction (Full-length Human 4-1BB): 1.38e+06
Kd (Cyno OX40-AFH): < 1 nM
koff (Cyno OX40-AFH): 0.00029 s⁻¹
kon (Cyno OX40-AFH): 1.1e+06 M⁻¹ s⁻¹
Kd (Human OX40 ECD-AFH): < 1 nM
koff (Human OX40 ECD-AFH): 0.00036 s⁻¹
kon (Human OX40 ECD-AFH): 910000 M⁻¹ s⁻¹
Kd (Human 4-1BB ECD-AFH): 18 nM
koff (Human 4-1BB ECD-AFH): 0.0048 s⁻¹
kon (Human 4-1BB ECD-AFH): 260000 M⁻¹ s⁻¹
Kd (Cyno 4-1BB ECD-AFH): 70 nM
koff (Cyno 4-1BB ECD-AFH): 0.0077 s⁻¹
kon (Cyno 4-1BB ECD-AFH): 110000 M⁻¹ s⁻¹
B1: FXX01110 (bispecific antibody)
chain: EVQLVQSGAEVKKPGASVKVSCKASGYTFTSYWMNWVRQAPGQGLEWMGNIYPSGGSTNYAQKFQGRVTMTVDTSTSTVYMELSSLRSEDTAVYYCASFSDGYYAYAMDYWGQGTLVTVSSGGGGSGGGGSGGGGSGGGGSEIVMTQSPATLSLSPGERATLSCRASQSVSSYLNWYQQKPGQAPRLLIYYASRRHTGIPARFSGSGSGTDFTLTISSLQPEDFAVYYCQQGYNLPYTFGQGTKVEIKEPKSSDKTHTCPPCPAPPAAAPSVFLFPPKPKDTLMISRTPEVTCVVVDVSHEDPEVKFNWYVDGVEVHNAKTKPREEQYNSTYRVVSVLTVLHQDWLNGKEYKCAVSNKALPAPIEKTISKAKGQPREPQVYTLPPSRDELTKNQVSLTCLVKGFYPSDIAVEWESNGQPENNYKTTPPVLDSDGSFFLYSKLTVDKSRWQQGNVFSCSVMHEALHNHYTQKSLSLSPGGGGSPSSYVLTQPPSVSVAPGQTARITCGGNNIGSKSVNWFQQKPGQAPVLVVYDDSGRPSGIPARFSGSTSGNTATLTISRVEAGDEADYYCQVWDSSSDHVVFGGGTKLTVLGGGGSGGGGSGGGGSGGGGSQVQLVESGGGVVQPGRSLRLSCAASGFTLSYYGMHWVRQAPGKGLEWVAAISHDGSDKYYADSVKGRFTISRDNSKNTLYLQMNSLRAEDTAVYYCSNDQFDPWGQGTLVTVSSR
notes: ADAPTIR anti-4-1BB x anti-OX40, pI variant of the anti-OX40 scFv

EC50 (read off the curve) (Full-length Cyno 4-1BB): ~0.3 nM
EC50 (read off the curve) (Full-length Cyno OX40): 1 to 2 nM
OX40 Reporter Assay EC50 (Full-length Human OX40): 0.018 nM
OX40 Reporter Assay Max induction (Full-length Human OX40): 6.08e+06
4-1BB Reporter Assay EC50 (Full-length Human 4-1BB): 0.018 nM
4-1BB Reporter Assay Max induction (Full-length Human 4-1BB): 1.43e+06
Kd (Cyno OX40-AFH): < 1 nM
koff (Cyno OX40-AFH): 0.00028 s⁻¹
kon (Cyno OX40-AFH): 1.1e+06 M⁻¹ s⁻¹
Kd (Human OX40 ECD-AFH): < 1 nM
koff (Human OX40 ECD-AFH): 0.00026 s⁻¹
kon (Human OX40 ECD-AFH): 1.1e+06 M⁻¹ s⁻¹
Kd (Human 4-1BB ECD-AFH): 17 nM
koff (Human 4-1BB ECD-AFH): 0.0045 s⁻¹
kon (Human 4-1BB ECD-AFH): 270000 M⁻¹ s⁻¹
Kd (Cyno 4-1BB ECD-AFH): 116 nM
koff (Cyno 4-1BB ECD-AFH): 0.0091 s⁻¹
kon (Cyno 4-1BB ECD-AFH): 79000 M⁻¹ s⁻¹
B2: FXX01114 (bispecific antibody)
chain: B1 chain with T690R
notes: ADAPTIR anti-4-1BB x anti-OX40, pI variant

EC50 (read off the curve) (Full-length Cyno 4-1BB): ~0.3 nM
EC50 (read off the curve) (Full-length Cyno OX40): 1 to 2 nM
OX40 Reporter Assay EC50 (Full-length Human OX40): 0.016 nM
OX40 Reporter Assay Max induction (Full-length Human OX40): 6.1e+06
4-1BB Reporter Assay EC50 (Full-length Human 4-1BB): 0.019 nM
4-1BB Reporter Assay Max induction (Full-length Human 4-1BB): 1.37e+06
Kd (Cyno OX40-AFH): < 1 nM
koff (Cyno OX40-AFH): 0.00028 s⁻¹
kon (Cyno OX40-AFH): 980000 M⁻¹ s⁻¹
Kd (Human OX40 ECD-AFH): < 1 nM
koff (Human OX40 ECD-AFH): 0.00031 s⁻¹
kon (Human OX40 ECD-AFH): 890000 M⁻¹ s⁻¹
Kd (Human 4-1BB ECD-AFH): 15 nM
koff (Human 4-1BB ECD-AFH): 0.0046 s⁻¹
kon (Human 4-1BB ECD-AFH): 300000 M⁻¹ s⁻¹
Kd (Cyno 4-1BB ECD-AFH): 82 nM
koff (Cyno 4-1BB ECD-AFH): 0.0078 s⁻¹
kon (Cyno 4-1BB ECD-AFH): 95000 M⁻¹ s⁻¹
B3: FXX01113 (bispecific antibody)
chain: B1 chain with T690R
notes: as for B2
